Square brackets hold non-standard residues; d marks the D form. * marks the point of attachment. DOTA = O=C(O)CN1CCN(CC(=O)O)CCN(CC(=O)*)CCN(CC(=O)O)CC1
Key:
La-DOTA-c(RGDyK) [1] = target: T1, La-DOTA-c(RGDyK) (also: DOTA as La complex); assay: SPR competition
T1 chain: cyclo(RGD[dY]K(DOTA))

La-DOTA-c(RGDyK) [2] = target: T1, La-DOTA-c(RGDyK); assay: SPR competition

- IC50 (La-DOTA-c(RGDyK) [1]): 33 nM
- Ki (La-DOTA-c(RGDyK) [2]): 26 nM
B1: Integrin alphaVbeta3 (protein)
chain 1: FNLDVDSPAEYSGPEGSYFGFAVDFFVPSASSRMFLLVGAPKANTTQPGIVEGGQVLKCDWSSTRRCQPIEFDATGNRDYAKDDPLEFKSHQWFGASVRSKQDKILACAPLYHWRTEMKQEREPVGTCFLQDGTKTVEYAPCRSQDIDADGQGFCQGGFSIDFTKADRVLLGGPGSFYWQGQLISDQVAEIVSKYDPNVYSIKYNNQLATRTAQAIFDDSYLGYSVAVGDFNGDGIDDFVSGVPRAARTLGMVYIYDGKNMSSLYNFTGEQMAAYFGFSVAATDINGDDYADVFIGAPLFMDRGSDGKLQEVGQVSVSLQRASGDFQTTKLNGFEVFARFGSAIAPLGDLDQDGFNDIAIAAPYGGEDKKGIVYIFNGRSTGLNAVPSQILEGQWAARSMPPSFGYSMKGATDIDKNGYPDLIVGAFGVDRAILYRARPVITVNAGLEVYPSILNQDNKTCSLPGTALKVSCFNVRFCLKADGKGVLPRKLNFQVELLLDKLKQKGAIRRALFLYSRSPSHSKNMTISRGGLMQCEELIAYLRDESEFRDKLTPITIFMEYRLDYRTAADTTGLQPILNQFTPANISRQAHILLDCGEDNVCKPKLEVSVDSDQKKIYIGDDNPLTLIVKAQNQGEGAYEAELIVSIPLQADFIGVVRNNEALARLSCAFKTENQTRQVVCDLGNPMKAGTQLLAGLRFSVHQQSEMDTSVKFDLQIQSSNLFDKVSPVVSHKVDLAVLAAVEIRGVSSPDHVFLPIPNWEHKENPETEEDVGPVVQHIYELRNNGPSSFSKAMLHLQWPYKYNNNTLLYILHYDIDGPMNCTSDMEINPLRIKISSLQTTEKNDTVAGQGERDHLITKRDLALSEGDIHTLGCGVAQCLKIVCQVGRLDRGKSAILYVKSLLWTETFMNKENQNHSYSLKSSASFNVIEFPYKNLPIEDITNSTLVTTNVTWGIQPAPMPV
chain 2: GPNICTTRGVSSCQQCLAVSPMCAWCSDEALPLGSPRCDLKENLLKDNCAPESIEFPVSEARVLEDRPLSDKGSGDSSQVTQVSPQRIALRLRPDDSKNFSIQVRQVEDYPVDIYYLMDLSYSMKDDLWSIQNLGTKLATQMRKLTSNLRIGFGAFVDKPVSPYMYISPPEALENPCYDMKTTCLPMFGYKHVLTLTDQVTRFNEEVKKQSVSRNRDAPEGGFDAIMQATVCDEKIGWRNDASHLLVFTTDAKTHIALDGRLAGIVQPNDGQCHVGSDNHYSASTTMDYPSLGLMTEKLSQKNINLIFAVTENVVNLYQNYSELIPGTTVGVLSMDSSNVLQLIVDAYGKIRSKVELEVRDLPEELSLSFNATCLNNEVIPGLKSCMGLKIGDTVSFSIEAKVRGCPQEKEKSFTIKPVGFKDSLIVQVTFDCDCACQAQAEPNSHRCNNGNGTFECGVCRCGPGWLGSQCECSEEDYRPSQQDECSPREGQPVCSQRGECLCGQCVCHSSDFGKITGKYCECDDFSCVRYKGEMCSGHGQCSCGDCLCDSDWTGYYCNCTTRTDTCMSSNGLLCSGRGKCECGSCVCIQPGSYGDTCEKCPTCPDACTFKKECVECKKFDRGALHDENTCNRYCRDEIESVKELKDTGKDAVNCTYKNEDDCVVRFQYYEDSSGKSILYVVEEPECPKGPD
